According to the supplement of paper PMC9170038:

System: MS2 coat protein
Test: apparent KD of MS2 coat protein; designed switch direction (-1 OFF switch, 1 ON switch): 1; higher = weaker reporter binding
Procedure, shortened: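 Stalled E. coli RNA polymerase transcribed designed RNA switches on Illumina chips, which were then titrated with SNAP-549-labelled MS2 coat protein, doubling from 0.7 or 1.5 nM to 3 µM. Steps lasted from 0.8–1.5 h at the lowest concentration to 10–20 min at the highest. The apparent KD is each design's median over clusters of curve-fitted normalised fluorescence.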

[1] = input ligand: microRNA oligo, concentration not stated
[2] = Eterna round: R95, input ligand: microRNA oligo, concentration not stated
[3] = Eterna round: R95, input ligand: FMN 200 uM
[4] = Eterna round: R95, input ligand: none

Sequence	apparent KD of MS2 coat protein (input ligand: FMN 200 uM)	apparent KD of MS2 coat protein [1]	apparent KD of MS2 coat protein (input ligand: none)	apparent KD of MS2 coat protein [2]	apparent KD of MS2 coat protein [3]	apparent KD of MS2 coat protein [4]
GGAUGAUAGAUAGGAUAUUGAUUGUAAUUAUGUCAAGAAGGAUCUUUGAUUUAAACGACCAGUUACAUGAGGAUCACCCAUGUU [JR_SSNG1_Sub087] (Eterna round: R96, puzzle: Same State NG 1)	23.3 nM	30.4 nM	43.6 nM			
GAUACACAUGAGGAUCACCCAUGUCGUAUGACAUGAGGAUAUGUACAGACUUCGGUCUGUACAGAAGGCAUGUGUC [SS1 - 1011 Omei Mod 2] (puzzle: Same State 1)				48.3 nM		
GUUACAUGAGGAUCACCCAUGUAUGUGUGGGAGUAAGUGUCUUAGGAUAUCUGUUAUUUAAUUCAAGAGAAGGAAGAUUGUUGU [JMF's solution 46] (Eterna round: R96, puzzle: Same State NG 3)	94.6 nM	79.1 nM	93.7 nM			
UUAUACUAGAGAGGAUAUGCAGAGGAUCACCCUGCAGAAGGCUCAUUAGAGAGGAUAUGCAGAGGAUCACCCUGCAGAAGGCUC [pwkr ssNG DX.21] (Eterna round: R96, puzzle: Same State NG 1)	10.7 nM	22.2 nM	20.1 nM			
GAGCGCUGUCGAGAGGAUAUGCGGUGAUGGACAUGAGGAUCACCCAUGUUAGCGAUAGCAUUACGGUAGAAGGCUCUACAGCUGC [Mat - Same State 2 - Mod of UCT - D87] (puzzle: Same State 2)				22.3 nM		
CUUUUUAAUGCAGGAUAUGAUCAACAUGAGGAUCACCCAUGUGGUGUUGUGAGUAAGGAGAGUGAUCAGAAGGGCAUCUCCUCA [SS-NG2-LRO06] (Eterna round: R96, puzzle: Same State NG 2)	186 nM	73.6 nM	83.6 nM			
GCGAGCGUACUUGCAGACAUGAGGAUCACCCAUGUAACUGGACAGGAUAUGGUACCGUUUCGGUACCAGAAGGGUUUAUUCAUG [JL SSNG3 3.56] (Eterna round: R96, puzzle: Same State NG 3)	83.4 nM	63.5 nM	56.2 nM			
GUGCUCGUGUGAGGAUAUGCUUCCGGUUCGGCUGCAGAAGGUACUAUUAUACAUGAGGAUCACCCAUGUCGCUUUUCUCCGGUG [salish99_SSNG1_r04_916] (Eterna round: R96, puzzle: Same State NG 1)	28.3 nM	17.6 nM	25 nM			
AUCCGGAAGCGAGGAUAUGCAGAGGAUCACCCUGCAGAAGGCGCAAAAGCGAGGAUAUGCAGAGGAUCACCCUGCAGAAGGCGC [pwkr ssNG DX.28] (Eterna round: R96, puzzle: Same State NG 1)	14 nM	12.6 nM	42.1 nM			
GGUCCAGCCUGAGCUGGACUAUAGCAUGUACAUGAGGAUCACCCAUGUCAUGUACAAGUAUGUUGUUUGUCUUGAAA [Sensorship 6 - Jieux - Sensor for hsa-mir-208a] (puzzle: Sensor for hsa-mir-208a)				15.3 nM	21.4 nM	20.2 nM
GCAUUAGGCAUAGGAUAUCCAACAUGAGGAUCACCCAUGUCGCAGCGUGAAAAGAACGCUGCAAAGGAGAAGGAUGCGGUUUAC [Onususa] (Eterna round: R96, puzzle: Same State NG 2)	11.8 nM	18.8 nM	29.9 nM			
AGUCCAGCAAGAGCUGGACAAAAGCAUGUACAUGAGGAUCACCCAUGUUCAUGUACAAGCUUUUAGCUCGUCUUAAA [Mat - hsa-mir-208a - Mod of JL - 58] (puzzle: Sensor for hsa-mir-208a)				14.2 nM	505 nM	570 nM
GGAGCUGGCACCGAGGAUAUUCAUAUUAAAACAUGAGGAUCACCCAUGUAGGCCAGAAGGCCUUGGGAGAAGGCGGAUCAGCUCG [Xeonanis - 12] (puzzle: Same State 2)				532 nM	30.8 nM	532 nM
GUAGAAUAACUAGAGGAUAUCCGAGUGGUAACAUGAGGAUCACCCAUGUGAUGAAAGGAACAUGAGGAGAAGGCUAGAAUGAAUG [Mat - Same State 2 - Mod of JL - D84] (puzzle: Same State 2)				38.4 nM	23.4 nM	88.3 nM
GAGGGCGAAAGCAACAUGAGGAUCACCCAUGUCCUCGGAGGUCAGGAUAUCCGGCGGUAGCCGAAGGAGAAGGGACGGUGAACC [AK SSNG3-V2-32.1] (Eterna round: R96, puzzle: Same State NG 3)	180 nM	97.5 nM	175 nM			
UCCGCUAUCUAGAAGGAUAUGCGUAUAUAAACAUGAGGAUCACCCAUGUACCGGCGAAAACCGGUGCAGAAGGUUUAGCUAGUGA [Rediin] (puzzle: Same State 2)				273 nM	42.3 nM	502 nM

Sequence	apparent KD of MS2 coat protein (input ligand: FMN 200 uM)	apparent KD of MS2 coat protein [1]	apparent KD of MS2 coat protein (input ligand: none)	apparent KD of MS2 coat protein [2]	apparent KD of MS2 coat protein [3]	apparent KD of MS2 coat protein [4]
GAAUUAAGAGUAGGAUAUGUGGGCGAGCUGCCACCCACAUGAGGAUCACCCAUGUAUGGACACUCACAGAAGGGCUUAUUCAAC [Eternabot solution 37] (Eterna round: R96, puzzle: Same State NG 2)	68.8 nM	60.5 nM	64.8 nM			
GGUCCAGCCUGAGCUGGACAAAAGCAUGUACAUGAGGAUCACCCAUGUCAUGUACAAGCUUUUUGCUCGUCUAAAUG [Mat - hsa-mir-208a - 93] (puzzle: Sensor for hsa-mir-208a)				21.7 nM	802 nM	758 nM
UAGAGAGGAAGCGAGGAUAUCGUGGGAGGAACAUGAGGAUCACCCAUGUGUGAUGUUGAGAGGGACGAGAAGGCGCGGGAAAUUA [JR_SS2_Sub080] (puzzle: Same State 2)				160 nM	176 nM	175 nM
AGUCCUGAAAAGAAAAUACAGAGAGAUGUACAUGAGGAUCACCCAUGUCAUGUACAAGUUCUAUGCUCGUCAUAUAA [Sensorship 22 - Jieux - Sensor for hsa-mir-208a] (puzzle: Sensor for hsa-mir-208a)				106 nM	510 nM	617 nM
ACAUGAGACCAAGGAUAUGUUGUACCUACAUGUGACAUGAGGAUCACCCAUGUGGUAAGUAUGAGGCAGAAGGUGGAGAUAUGU [Equivalence 26 - Jieux - Same State NG 2] (Eterna round: R96, puzzle: Same State NG 2)	26.5 nM	44.2 nM	59.3 nM			
AGCUAGUACCGAGGAUAUACAUACAUGAGGAUCACCCAUGUAUACAUGAAUAAAUGAGACUACAUGUAGAAGGCGGUACUAGCA [Mat - Same State NG 2 - JL mod - D47] (Eterna round: R96, puzzle: Same State NG 2)		48.8 nM				
GAGCCAGUCCGAGGAUAUUCAUAACAUGAGGAUCACCCAUGUAGGCUCAGAAAAGAAGAGCCUUGGGAGAAGGCGGACUGGCUC [Xeonanisa<<5] (Eterna round: R96, puzzle: Same State NG 2)	9.88 nM	30.2 nM	43.8 nM			
AGUCCAGCAUAAGCUGGACAAAAGCAUGUACAUGAGGAUCACCCAUGUCAUGUACAAGCUUUUUGCUCGUCUUAAUA [Mat - hsa-mir-208a - Mod of JL - D36] (puzzle: Sensor for hsa-mir-208a)				19.8 nM	446 nM	500 nM
GCGAAGAGGUAAGGAUAUUCAUGGCGUAGACAUGAGGAUCACCCAUGUAGGAGACGAAUUAAAAGGGAGAAGGUACCAGGACGC [AK SSNG2-V2-16] (Eterna round: R96, puzzle: Same State NG 2)	50.1 nM	298 nM	286 nM			
GCCGUAUAAACAUGAGGAUCACCCAUGUGCGCGAGAGCGGAUGAGGAUAUCGAUGGGUUUCCCGUCGAGAAGGCGUGGGUCGGC [JL SSNG3 3.97] (Eterna round: R96, puzzle: Same State NG 3)	31 nM	41.1 nM	55.2 nM			
CUGAAAUGUCAAGGAUAUCACGUCGAUUAGACGUGAGAAGGUGAUCUACACAUGAGGAUCACCCAUGUGUUACAUGGGAGUCAG [Brourd's SSNG1/1-A2 mod 17] (Eterna round: R96, puzzle: Same State NG 1)	325 nM	448 nM	601 nM			
GGUAAGAAUUAAGGAUAUCGAGUACAUAUGUUUAACAUGAGGAUCACCCAUGUGGGUUGCGGUAUCGAGAAGGUAAAAUAUAAG [Mat - same State NG 2 - JL mod - D64] (Eterna round: R96, puzzle: Same State NG 2)	51.8 nM	26.4 nM	75.7 nM			
AACUAUCUAUCUCAGGAUAUCAUGUCAAAGACAUGAGGAUCACCCAUGUACCAGGAAACUGGUUAUGAGAAGGGAGAUAGAUAGU [Mat - Same State 2 - Mod - D41] (puzzle: Same State 2)				263 nM	127 nM	602 nM
UAGAAACAUGAGGAUCACCCAUGUGUCAAAGACAUAGGAUAUCGUAACCGGCGCCGAAUACGAGAAGGGUGGUAAA [Arares] (puzzle: Same State 1)				74.9 nM	183 nM	166 nM
UGUUGUAUUACAGGAUAUCUAGUAGUUUUAUUUAGAGAAGGGUAUUCACAUGAGGAUCACCCAUGUAUAUACGAGGAAGUUGUG [JMF's solution 36] (Eterna round: R96, puzzle: Same State NG 1)		29.7 nM				
